The values below come from paper PMC7134607 (Biochemical and Biophysical Research Communications, 2004).

In general, Kd refers to the concentration at which binding is half-saturated.

The series concerns the molecule itself. The series can be described thus: enzyme activity versus enzyme concentration.

B1: SARS main protease (enzyme)
chain: SGFRKMAFPSGKVEGCMVQVTCGTTTLNGLWLDDTVYCPRHVICTAEDMLNPNYEDLLIRKSNHSFLVQAGNVQLRVIGHSMQNCLLRLKVDTSNPKTPKYKFVRIQPGQTFSVLACYNGSPSGVYQCAMRPNHTIKGSFLNGSCGSVGFNIDYDCVSFCYMHHMELPTGVHAGTDLEGKFYGPFVDRQTAQAAGTDTTITLNVLAWLYAAVINGDRWFLNRFTTTLNDFNLVAMKYNYEPLTQDHVDILGPLSAQTGIAVLDMCAALKELLQNGMNGRTILGSTILEDEFTPFDVVRQCSGVTFQ
Take B1: the equilibrium dissociation constant (Kd) stood at 15 ± 4 nM.
